# T1: human monomeric MuSK FLAG streptavidin (in house produced, batch 27-6-2019) (human, UniProt O15146 24-495)
# T1 construct: also called full length MuSK; not shown: FLAG and streptavidin tags
# T1 sequence: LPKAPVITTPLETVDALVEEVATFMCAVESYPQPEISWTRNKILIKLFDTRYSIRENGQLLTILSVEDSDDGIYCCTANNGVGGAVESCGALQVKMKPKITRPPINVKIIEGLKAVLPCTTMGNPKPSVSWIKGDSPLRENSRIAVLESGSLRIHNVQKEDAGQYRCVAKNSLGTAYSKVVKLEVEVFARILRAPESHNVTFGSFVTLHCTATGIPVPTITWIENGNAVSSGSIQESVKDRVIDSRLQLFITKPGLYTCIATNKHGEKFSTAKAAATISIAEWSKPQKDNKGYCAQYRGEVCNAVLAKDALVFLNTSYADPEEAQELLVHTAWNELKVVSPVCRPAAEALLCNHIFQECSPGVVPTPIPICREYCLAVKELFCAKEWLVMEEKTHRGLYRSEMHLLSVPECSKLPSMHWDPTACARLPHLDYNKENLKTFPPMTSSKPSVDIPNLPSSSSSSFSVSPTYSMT
# T2: Human MuSK (R&D Systems, cat. 10189-MK, histidine tag) (human, UniProt O15146 24-495)
# T2 construct: Bought protein; also called human monomeric MuSK-6xhis; not shown: histidine tag (6xhis)
# T2 sequence: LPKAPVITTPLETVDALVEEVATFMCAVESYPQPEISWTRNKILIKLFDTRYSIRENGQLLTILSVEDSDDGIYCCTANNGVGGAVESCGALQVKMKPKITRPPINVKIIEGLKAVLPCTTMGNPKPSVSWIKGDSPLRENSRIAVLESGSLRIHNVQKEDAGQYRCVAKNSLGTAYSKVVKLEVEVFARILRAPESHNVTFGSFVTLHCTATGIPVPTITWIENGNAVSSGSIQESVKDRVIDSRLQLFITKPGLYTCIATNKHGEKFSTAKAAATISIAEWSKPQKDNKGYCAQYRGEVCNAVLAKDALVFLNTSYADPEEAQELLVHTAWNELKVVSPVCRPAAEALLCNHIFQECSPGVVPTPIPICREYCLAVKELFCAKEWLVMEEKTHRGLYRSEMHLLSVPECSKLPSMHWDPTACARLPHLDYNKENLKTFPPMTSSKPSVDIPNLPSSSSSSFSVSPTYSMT
# T3: Rhesus monkey MuSK (recombinant, streptavidine and Flag tag) (rhesus monkey, UniProt O15146 24-495 (human entry))
# T3 construct: also called Rhesus MuSK; not shown: streptavidine and Flag tag
# T3 chain: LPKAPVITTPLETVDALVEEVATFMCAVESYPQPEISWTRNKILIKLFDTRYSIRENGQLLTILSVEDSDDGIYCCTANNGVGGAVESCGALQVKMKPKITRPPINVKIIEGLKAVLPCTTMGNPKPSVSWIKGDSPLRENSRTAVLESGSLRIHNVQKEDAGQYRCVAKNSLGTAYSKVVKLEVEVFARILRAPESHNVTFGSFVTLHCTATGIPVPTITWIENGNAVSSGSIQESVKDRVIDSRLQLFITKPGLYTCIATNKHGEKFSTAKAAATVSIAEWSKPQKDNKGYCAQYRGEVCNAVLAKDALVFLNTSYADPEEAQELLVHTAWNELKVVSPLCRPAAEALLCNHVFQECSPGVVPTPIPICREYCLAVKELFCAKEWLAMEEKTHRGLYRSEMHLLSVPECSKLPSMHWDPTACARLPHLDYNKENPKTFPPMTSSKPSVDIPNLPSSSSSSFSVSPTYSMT
# T4: Mouse MuSK (recombinant, streptavidine and Flag tag) (mouse, UniProt Q61006 22-494)
# T4 construct: not shown: streptavidine and Flag tag
# T4 sequence: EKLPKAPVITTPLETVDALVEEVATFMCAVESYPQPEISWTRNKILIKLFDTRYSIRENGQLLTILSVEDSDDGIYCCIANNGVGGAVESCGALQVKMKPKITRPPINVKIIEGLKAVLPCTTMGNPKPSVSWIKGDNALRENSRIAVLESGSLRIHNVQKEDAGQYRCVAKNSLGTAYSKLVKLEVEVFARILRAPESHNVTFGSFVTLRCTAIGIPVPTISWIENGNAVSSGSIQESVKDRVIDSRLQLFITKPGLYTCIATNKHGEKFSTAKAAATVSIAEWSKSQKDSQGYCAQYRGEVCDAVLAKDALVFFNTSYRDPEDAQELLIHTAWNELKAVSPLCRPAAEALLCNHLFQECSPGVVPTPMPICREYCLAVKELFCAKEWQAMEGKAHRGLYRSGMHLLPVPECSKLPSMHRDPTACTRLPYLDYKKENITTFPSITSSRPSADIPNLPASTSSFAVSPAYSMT
# Legend:
# [1] = target: T1, human monomeric MuSK FLAG streptavidin …; test: epitope binning ELISA (coated anti-MuSK Fab, MuSK, IgG, anti-Fc HRP); competitor: 3D9b
# Description: For epitope binning—An ELISA plate was coated at 1 μg/ml of the anti-MuSK Fabs and incubated overnight at 4° C. Next, the plate was wash with PBS followed by blocking with 1% casein in PBS for one hour. After washing the plate, 1 μg/ml of human monomeric MuSK (in house produced, batch 27-6-2019) was incubated for one hour at RT. The plate was washed and anti-MuSK antibodies at 0.3-10 μg/ml were added to the plate and incubated for one hour at RT. After washing the plate, detection antibody (goat anti-human Fc HRP (Jackson Immunoresearch cat. 109-035-098)) was added at 5000 fold dilution in PBS 0.1% casein. The plate was incubated for one hour at RT and washed with PBS-T. TMB was added and the reaction was stopped by adding H2504. […]
# For the epitope binning ELISA, a plate was coated with anti-MuSK Fab and human monomeric MuSK was added after blocking the plate. Next the different antibodies were added and allowed to bind.
# [2] = target: T2, Human MuSK (R&D Systems, cat. 10189-MK, …); test: SPR (Biacore), MuSK-coated chip, antibody alone (run of first antibody 3D10a)
# Description: A chip was coated with ˜5000 RU of human MuSK (Lot nr DHUCO 11908A, batch nr 1089_MK). In a first experiment the saturating concentration of the pre-leads was determined. This is the concentration where the amplitude of a specific pre-lead doesn't increase anymore when additional pre-lead is injected on the immobilized MuSK.
# [3] = target: T3, Rhesus monkey MuSK (recombinant, …); test: SPR (Biacore), antibody captured on anti-hFc chip, MuSK injected 0.3125-10 nM
# Description: (§1) The affinity of 3D10a, 4D3, 3F6c and 3D9b for human, rhesus monkey and mouse MuSK was tested in Biacore using the setup shown in FIG. 3. […] The affinities are very high keeping in mind that MuSK was added here in solution, allowing only for monovalent binding (affinity versus avidity).
# [4] = target: T4, Mouse MuSK (recombinant, streptavidine …); test: as above
# Description: as §1
# [5] = target: T2, Human MuSK (R&D Systems, cat. 10189-MK, …); test: as above
# Description: as §1
# [6] = target: T2, Human MuSK (R&D Systems, cat. 10189-MK, …); test: SPR (Biacore), antibody captured on anti-hFc chip; 1.25 nM; dissociation pH 7.4
# Source text: (§2) In order to study pH dependent binding of our antibodies to MuSK, the Biacore was used with the same setup as described in the paragraph entitled “Binding affinity for mouse, human and rhesus monkey recombinant MuSK in Biacore”. 6. […] For the other antibodies there is no real difference observed between pH 7.4 and 5.5.
# [7] = target: T2, Human MuSK (R&D Systems, cat. 10189-MK, …); test: SPR (Biacore), pH 7.4 (summary table, repeats the average of Table 16)
# Source text: as §2
OD 450 nm [1],amplitude of prelead without presaturating MuSK (RU) [2],Kd [3],Kd [4],Kd [5],koff [6],koff [7],Binder
0.115 OD,3130 RU,0.21 nM,0.1 nM,0.16 nM,0.00016 s⁻¹,–,"3D10a (antibody, human IgG1, kappa, L234A L235A, V domains shown) VH: EVQLVESGGGLVKPGGSLRLSCAASGFTFSASTMAWVRQAPGKGLEWVSSVSGDSHHIYYADSLKGRFTISRDNAKNSLYLQMNSLRAEDTAVYYCARERLLRLGVGFDSWGQGTLVTVSS VL: DIQMTQSPSSLSASVGDRVTITCRASQRISGFVNWYQQKPGKAPKLLIYAASTLQSGVPSRFSGSGSGTDFTLTISSLQPEDFATYYCQQSYSPLYTFGQGTKLEIKR"
0.15 OD,2110 RU,0.28 nM,0.14 nM,0.17 nM,0.00014 s⁻¹,0.00012 s⁻¹,"3D9b (antibody, human IgG1, kappa, L234A L235A, V domains shown) VH: EVQLVESGGGLVKPGGSLRLSCAASGFTFSTYTMHWVRQAPGKGLEWVSSISSRSAYKYYADSVKGRFTISRDNAKNSLYLQMNSLRAEDTAVYYCARDFFQLGPPRFDSWGQGTLVTVSS VL: DIQMTQSPSSLSASVGDRVTITCRASQRISSFLNWYQQKPGKAPKLLIYGASNLQSGVPSRFSGSGSGTDFTLTISSLQPEDFATYYCQQSYSPSYTFGQGTKLEIKR"
0.133 OD,2510 RU,0.13 nM,0.03 nM,0.05 nM,7e-05 s⁻¹,8e-05 s⁻¹,"3F6c (antibody, human IgG1, kappa, L234A L235A, V domains shown) VH: EVQLVESGGGLVKPGGSLRLSCAASGFTFSSYTMDWVRQAPGKGLEWVSSIGSNGDYIYYADSVRGRFTISRDNAKNSLYLQMNSLRAEDTAVYYCARGQLAVAGTHFDYWGQGTLVTVSS VL: DIQMTQSPSSLSASVGDRVTITCRASQKVNKYVNWYQQKPGKAPKLLIYAASTLQSGVPSRFSGSGSGTDFTLTISSLQPEDFATYYCQQSYSPLSTFGQGTKLEIKR"
0.061 OD,2620 RU,0.31 nM,0.17 nM,0.26 nM,0.00015 s⁻¹,0.00014 s⁻¹,"4D3 (antibody, human IgG1, kappa, L234A L235A, V domains shown) VH: EVQLVESGGGLVKPGGSLRLSCAASGFTFSSYTMTWVRQAPGKGLEWVSSISSGGHYIYYTDSLKGRFTISRDNAKNSLYLQMNSLRAEDTAVYYCARERLLRLGVGFDFWGQGTLVTVSS VL: DIQMTQSPSSLSASVGDRVTITCRASQSISGYLNWYQQKPGKAPKLLIYAASTLQSGVPSRFSGSGSGTDFTLTISSLQPEDFATYYCQQSYSALYTFGQGTKLEIKR"
